According to patent publication US20060205646A1:

Target: MMPs in infected porcine wound fluid
Experiment: cell-based or functional assay

- inhibition of MMP activity (Fluorogenic Peptide Substrate I), 0.4 mg/mL γ-D-crystallin: 50%
Substance: γ-D-crystallin (from UniProt P07320 2-174)
